Source: the supplement of paper PMC9170038

System: MS2 coat protein
Test: apparent KD of MS2 coat protein; designed switch direction (-1 OFF switch, 1 ON switch): -1; higher = weaker reporter binding
Summary of the method: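 An oligonucleotide input, 200 uM small-molecule ligand, or no input was present during titration of SNAP-549-labelled MS2 coat protein, which was doubled from 0.7 or 1.5 nM to 3 µM. Designed RNA switches had been transcribed on Illumina chips by stalled E. coli RNA polymerase. Apparent KD per design is the median over clusters of curves fitted to normalised cluster fluorescence.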

[1] = input ligand: microRNA oligo, concentration not stated
[2] = Eterna round: R95, input ligand: microRNA oligo, concentration not stated
[3] = Eterna round: R95, input ligand: FMN 200 uM
[4] = Eterna round: R95, input ligand: none

Sequence | apparent KD of MS2 coat protein (input ligand: FMN 200 uM) [nM] | apparent KD of MS2 coat protein [1] [nM] | apparent KD of MS2 coat protein (input ligand: none) [nM] | apparent KD of MS2 coat protein [2] [nM] | apparent KD of MS2 coat protein [3] [nM] | apparent KD of MS2 coat protein [4] [nM]
ACAUGAGGAUCACCCAUGUCCGUCUGGUCUGUCUCGGCUGUCGAGGAUAUAGCUCGGUAUCCGCGCUAGAAGGCGGGAGCCGGU [Aenatbe mod 92] (Eterna round: R96, puzzle: Exclusion NG 3) | 30.9 | 31.8 | 35 |  |  | 
UGAUCUUUUGUUAGGAUAUGCUGUUGUUUUCAACAGCAGAAGGGACAUGAGGAUCACCCAUGUCUUGUCAUAAA [Magic-04] (puzzle: Brourd's mod of Exclusion 4) |  |  |  | 12.7 |  | 
GUUUUGGGAGGAUAUAUGUGGAUAAUUUUUAUAUGAAAUUUACAUGAGGAUCACCCAUGUAGAAGGUCUAGAGC [-18.5, -15.1 kcal, 31% A] (Eterna round: R97, puzzle: Exclusion 2) | 476 |  | 261 |  |  | 
UCAUACGGUGAGGAUAUCUCCACUAAAGUGUGUAGAGAAGGCGCUACAUGAGGAUCACCCAUGUUUAUGGGCAG [Ex-6 Malc#13] (puzzle: Exclusion 6) |  |  |  | 109 | 52 | 124
CAAAACAGAGGAUAUACAUUUCCUCACCGCCAAAUGGCGGAACAUGAGGAUCACCCAUGUAGAAGGCUGGAAAA [Gesous] (puzzle: Exclusion 2) |  |  |  | 114 | 292 | 118
GGAUAAAAUCGAGGAUAUACGCACCACUAACGAGUAGAAGGCGAACAUGAGGAUCACCCAUGUGAGUUCUCAAUAAGAAACACG [Prohibition 68 - Jieux - Exclusion NG 1] (Eterna round: R96, puzzle: Exclusion NG 1) | 40.5 | 23.9 | 35.1 |  |  | 
GGCGAGCGAGGAUAUACAGGGUAUCCGACUCGCCGCGGGCGACAUGAGGAUCACCCAUGUAGAAGGCGCACGCG [EX2 A.18] (Eterna round: R97, puzzle: Exclusion 2) | 13.9 |  | 17.6 |  |  | 
GCGCUGCGAGGAUAUACAUGAGGAUCACCCAUGUGUCGGCAGCCAUGUUAGUACAAAUGUAGAAGGCGCGUAAA [EX3 #61] (Eterna round: R97, puzzle: Exclusion 3) | 20.8 |  | 18.3 |  |  | 
CCGGAAGUACAGGAUAUCGUAUCGGAAACGAUACGAGAAGGGUAUACAUGAGGAUCACCCAUGUGUCCUACCGG [Fiskers Ex 6 - 27] (puzzle: Exclusion 6) |  |  |  | 23.3 |  | 
CGCUGGACAGGAUAUGUUCUUGGGCACUUGAGGAUCACCCAAGUCAUCGGGACAUCAGGCACAGAAGGGUUUUUGG [salish99_ex5_r4_027] (Eterna round: R97, puzzle: Exclusion 5) | 18 |  | 20.5 |  |  | 
AAGCAGGUGUAGGCCGUCUACAUGAGGAUCACCCAUGUGCCUCAUCCACCCGGCACCCAAUAAAGCGGGCGCCGGGC [Teququ] (Eterna round: R96, puzzle: Sensor v2, turn-off variant) | 113 | 65.3 | 103 |  |  | 
AGGGAUAAAGGAUAUACAUGAGGAUCACCCAUGUUGAGGAAAGUUAGAUGAGGAGGAAGUAGAAGGUUAGACGA [JR_Exclu3_Sub087] (puzzle: Exclusion 3) |  |  |  | 35.4 | 24.3 | 42.5
AUCAUGUAAGGAUAUCUUACAUGGAUCGAAAGAUCAAGUUAAGAGAAGGUACAUGAGGAUCACCCAUGUAUAAC [Ex4-3: 34] (puzzle: Exclusion 4) |  |  |  | 22.3 | 21 | 20.8
CAUUUCAGUCGGAGAUCCAACAUGAGGAUCACCCAUGUCUCUAAAGCUUUUUGCUCGUCUUAUCCUCCUUUGUUCAC [JR_STOV1_Sub098] (Eterna round: R97, puzzle: Sensor, turn-off variant 1) | 458 |  | 299 |  |  | 
GGUUGACAUGAGGAUCACCCAUGUGAGGAUAUGCGAGAGAAAAAAGUGAGGAAGUAAAGCAGAAGGCGCUGUCG [salish99-ex1_r3_004] (puzzle: Exclusion 1) |  |  |  | 200 | 51.6 | 449
CCGCUGCAAGGAUAUACUUGCGGUGGUGUUCGAGUUCUUUUACUUGAGGAUCACCCAAGUAGAAGGUGCAAAAC [jl-ex2.4.54 ViennaUCT mod] (Eterna round: R97, puzzle: Exclusion 2) | 17.3 |  | 16.2 |  |  | 
CGCUGGACAGGAUAUGUUCUUGGGCACUUGAGGAUCACCCAAGUCAUCAAGACAACAGGCACAGAAGGGUUUAUGG [salish99_ex5_r4_023] (Eterna round: R97, puzzle: Exclusion 5) | 20.6 |  | 18.4 |  |  | 
UCAUACGGUGAGGAUAUCUCCACUAAAGUGUGUAGAGAAGGCGCUACAUGAGGAUCACCCAUGUUUAUGGGCAG [Ex-6 Malc#13] (Eterna round: R96, puzzle: Exclusion 6) |  | 236 |  |  |  | 
UAUUAAACAUAGGAUAUCGAAAAUAUCAUUUAACGAGAAGGAUGAACAUGAGGAUCACCCAUGUGGUAUCAUGG [Mat - Exclusion 6 - JL Mod - D15] (puzzle: Exclusion 6) |  |  |  | 289 | 426 | 148
UUUGAUUAAGUGAGGAUAUACUGUUUGUAUUGAUUGUAGAAGGUACAUGAGGAUCACCCAUGUUUAGUAUUUAU [JR_BME4_Sub037] (puzzle: Brourd's mod of Exclusion 4) |  |  |  | 19.2 |  | 
UAUUAGCAAGCAGGAUCCCACAUGAGGAUCACCCAUGUGCUCGUCUUAUAAGGUACUGUGACGAAAGUCACGGUACC [Sensor 3, v1 - 90] (puzzle: Sensor v3, turn-off variant 1) |  |  |  | 186 | 81.3 | 90.9
UUAGUUGGAGGAUAUACGCCGUUUGACAUGAGGAUCACCCAUGUAGAGGCUUAUGUCAAUGUAGAAGGCCGUUUGG [Eternabot (L2) Solution 12] (Eterna round: R97, puzzle: Exclusion 5) | 26.3 |  | 18.7 |  |  | 
AAGAAACGAGGAUAUACAGUUGAGUGAGAGAGGGAAGUGUGACAUGAGGAUCACCCAUGUAGAAGGCGUGAGAG [JR_Exclu2_Sub087] (puzzle: Exclusion 2) |  |  |  | 40.4 | 49.1 | 76.8
UAUAGUUCAGGAUAUGAUGAAUUAAACAUGAGGAUCACCCAUGUAGAUCCUGAAUUAACAUCAGAAGGGAAUAUUU [JL-ex5-4.49 Brourd mod] (Eterna round: R97, puzzle: Exclusion 5) | 17.4 |  | 14.3 |  |  | 
GUAGAGUCAGGAUAUACGAGAUCGAAAGAUCGGUAGUCCUUACAUGAGGAUCACCCAUGUAGAAGGGACUCUAC [Omei mod 7 to Eli's favorate candidate (ch.parushev)] (Eterna round: R97, puzzle: Exclusion 2) | 118 |  | 15.8 |  |  | 
AAUAAUACAGGAUAUACAGUUUAUUACAUGAGGAUCACCCAUGUUCUUCAAUGUAUAUAAGUAGAAGGGUAAGGAA [EX-5 Malc#1] (puzzle: Exclusion 5) |  |  |  | 25.1 | 50.9 | 24.3
